The DeepSol protein solubility set

Test: soluble on expression in E. coli; label from the status in PepcDB or PDB records

Row | Sequence | soluble on expression in E. coli
1 | MLPEIWKHDSPYFRPEGDTRGEAVLPIGMPMRQQYDFSSSRKNPYAAKLKKPVTIRLDEESISYFKSMSEETGIPYQSLINLYLKECAASGKRLNLSWK | not soluble
2 | MDESNVSQELLNSNRTEIARCVLLKDLVVMYGGYEVYANHVDLLMCFHQLMIVLAAPPIKPMQKEPGTLLPPRAVVYKLPAIKGSMKDAFSAHKLLKKSYAKPIVDISSTSGDSDPEWWSDRELTPDLNLKRELLLKKARFSRKTFDKRSSYIAHFKKSHLENYLNSDSDTVSNEKPKTLAQLKNFSKSNLVEYHPSMYRDVGVVIIFFSIYYYDLNSFKVNSEIEKQDKIFQEYKKWIFQSVQERRFVSKECTEPKVLSQLHVHVHQN | not soluble
3 | MAHHHHHHMMAAPGTSQLDSLKATARKGFYTGLSSGLMRQLIYATARLGFYPSFRDGILEGEVALGLKRSADPAGATALDRALAGASAGVFASFLSSPVEVCLVLQTTSKGKERLSMLQACNSVLKSRGVTGLWSGFGALASRAALVGVSQVAVHDQVLTMLRKRNVKRADPLGDNVVVNIASVITALFYSIVTMPVEVARVRMSAEAKLSAGAERRYHNVVQCIGRIFKEEGLLAMYDSYLPYFSRCASQTVICFFVIEYLTRELRERQKAKTNLIK | soluble
4 | MNAAIHPRPAAERAPSYYAATLNEETDYPTLLGAVTVDIAIIGGGFTGVATAVELAERGYKVALVETHRIGWGASGRNGGQVTGSLSGDAAMHKQMRQWLGAEVEDFIWHLRWRGHEIIRQRVEKYGIACDLRHGHLHAAMKASHMGELQASYEEAVRRGMGDQVVLLDKAGVQAHLETELYCGALKNTRNMHLHPLNLCIGEARAAAGLGALIFEHSEVLDIVHGPRPAVITREGRIEAQQILLAGDVYHKLERRQLKGMIFPAMGGIVTTRPLGELAREINPQGLAVYDCRFVLDYYRPTADGRLLFGGGANYSGRDSRDITAELRPCIERTFPRLKGVEIEFQWSCAMGIVMNRIPQLGKLSDNVWYCQGYSGHGVATSHIMGEIMAKAMSGSLEQFDTFARCKHLRVPLGDLFGNPMLAAGMWYYQLMEKLRLEHHHHHH | not soluble
5 | MAHHHHHHMEGASHEAAEHTSASAMTRKERKKIEKSEKQAEELRQLSKKANAVNGDTDNPFSVTLETDQIAEGSRNITFNKVSVSVNGKTLFKDTTVKLSAGSRYGLMGPNGRGKSTILRLLASRELPVQSNLDLLLVEQEQEFTASELSAVDAVLQSHKKQNACADEAKALGAKAELSEAEMERLHFLEEELDIMGAAQADARARRILFGLGFPTEWHERPTSSFSGGWRKRIALASAVFIEPDVLMLDEPTNHLDLNAVIWLESYLTKAYSEMARRPKTLIVVSHDAGFLDEVCTHMVHVENYMLNYYRGSYSSFDEQLQQRHQELDKKYESVAKTIRDKKRNGMSNAQVEVWIKDQVNSGRLDPLFLEKRRDYTVNFPFPDPPELRDGCVCKLDSVSFNYPGGPVLFQNVSCALWTDSRITLCGPNGIGKSTLLNLMTGVLEPTAGYITLNRQVRIGRYNQHFVDKLPLEKTPVECIQALGIPEEDKARRLLGSFGLEGIVHKNQIATLSGGQKARVAFAAISAESPHFLLFDEPTNHLDVESIDALCTAIRNFKGGVLVVTHDARLIESTEMQIWVAGDKNVMPFNGSLDDYKNVVRAEFEKEEAMRLEERKQLLEHKTEARQLKQSGVADVTTALQEKKEKKQHEHAQGLDAFLTAAAKKKKPKKAKEES | soluble
6 | MLWLALGPFPAMENQVLVIRIKIPNSGAVDWTVHSGPQLLFRDVLDVIGQVLPEATTTAFEYEDEDGDRITVRSDEEMKAMLSYYYSTVMEQQVNGQLIEPLQIFPRACKPPGERNIHGLKVNTRAGPSQHSSPAVSDSLPSNSLKKSSAELKKILANGQMNEQDIRYRDTLGHGNGGTVYKAYHVPSGKILAVKVILLDITLELQKQIMSELEILYKCDSSYIIGFYGAFFVENRISICTEFMDGGSLDVYRKMPEHVLGRIAVAVVKGLTYLWSLKILHRDVKPSNMLVNTRGQVKLCDFGVSTQLVNSIAKTYVGTNAYMAPERISGEQYGIHSDVWSLGISFMELALGRFPYPQIQKNQGSLMPLQLLQCIVDEDSPVLPVGEFSEPFVHFITQCMRKQPKERPAPEELMGHPFIVQFNDGNAAVVSMWVCRALEERRSQQGPP | soluble
7 | MVLADGELTVLGRIRSASNATFLCESTLGLRSLHCVYKPVSGERPLWDFPDGTLAGRELSAYLVSTQLGWNLVPHTIIRDGPAGIGMLQLWVQQPGDAVDSDPLPGPDLVDLFPAHRPRPGYLPVLRAYDYAGDEVVLMHADDIRLRRMAVFDVLINNADRKGGHILCGIDGQVYGVDHGLCLHVENKLRTVLWGWAGKPIDDQILQAVAGLADALGGPLAEALAGRIAAAEIGALRRRAQSLLDQPVMPGPNGHRPIPWPAFLEHHHHHH | not soluble
8 | MGSDKIHHHHHHMVDGMKHLILKVTNRCNLNCIYCYANNKNNKDMDFKTAKNAIDYLLNLDNQIKIQFTGGEPLLNFNLIEKIVDYCNDNYSNCNIQYAIQTNATLINEKIAEKIKELDIKVGISIDGLEINDILRPYKNGKPSTLDTLKGMYILKSYNIPFGITTVVTNKNLPYLEEFVKYLIAFGVKSISFDLLKPKKKEHLTLMPNIEEFNKLLNKLGRYPIYIKNLQKRPKDKYCYLNSGDLLFVNEFGDIYLCPTLEGLSCLGNINDKNKIKLPKVKSKGCYAREFLIKTFKK | not soluble
9 | MPKILWKSLHLCFPSNLTKCYSSPCIPPSSADPDGIIQPNRPSIVLLNNFNLLYHNDNHHHPHRVIDLPSSSTTTTPAATSSSSTSSYESDISPDVSAAFASRRFFFSSPGRSNAITDSPEPRSREFSDNYDDATITSTKKKKKKVYDNSVTTTTTRLISGGTAVTQHVDSPDPLTDFRRSMQEMIDAAIDAGELSRDPNDGYDFLDELLLTYLSLNPADTHKFVIRAFSDILVSLLSEERRIC | soluble
10 | MTQFNGKKIQEKIVSYCIDEVELDLITASDIAFHMTDWLNNLEDLVAFYKTPDEYSPEQLNNILMGFLYHVPNHTIAAAKLLLDVQVTDVFGVGVIADNKDE | not soluble
11 | LDFATLPPEINSARMYSGAGSAPMLAAASAWHGLSAELRASALSYSSVLSTLTGEEWHGPASASMTAAAAPYVAWMSVTAVRAEQAGAQAEAAAAAYEAAFAATVPPPVIEANRAQLMALIATNVLGQNAPAIAATEAQYAEMWSQDAMAMYGYAGASAAATQLTPFTEPVQTTNASGLAAQSAAIAHATGASAGAQQTTLSQLIAAIPSVLQGLSSSTAATFASGPSGLLGIVGSGSSWLDKLWALLDPNSNFWNTIASSGLFLPSNTIAPFLGLLGGVAAADAAGDVLGEATSGGLGGALVAPLGSAGGLGGTVAAGLGNAATVGTLSVPPSWTAAAPLASPLGSALGGTPMVAPPPAVAAGMPGMPFGTMGGQGFGRAVPQYGFRPNFVARPPAAG | not soluble
12 | MKTLVELPLLPLRDVVVYPHMVIPLFVGREKSIEALEAAMTGDKQILLLAQKNPADDDPGEDGLYRMGTVATVLQLLKLPDGTVKVLVEGEQRGQVERFIEEEGHIRAAVQAIDDANVGEREAEVFTRSLLSQFEQYVQLGKKVPAEVLSSLNSIDEPSRLVDTMAAHMALKIEQKQDILEITDLSSRVEHVLALLDAEIDLLQVEKRIRGRVKKQMERSQREYYLNEQMKAIQKELGDIDEGHNEVEELKKRIDAAGLTKEAHTKATAELNKLKQMSPMSAEATVVRSYIDWLLNVPWKAESKVRHDLAKAEDILDADHYGLEEVKERILEYLAVQKRVKKLKGPVLCLVGPPGVGKTSLAESIARATNRKFVRMALGGVRDEAEIRGHRRTYIGSMPGRLIQKMTKVGVRNPLFLLDEIDKMGSDMRGDPASALLEVLDPEQNHNFNDHYLEVDYDLSDVMFLCTANSMNIPAPLLDRMEVIRLPGYTEDEKVNIAAKYLIPKQVQANGLKKGELTFEEGALRDIIRYYTREAGVRSLERQIAKVCRKAVKEHAKLKRIQAVVSSETLENYLGVRKFRYGLAEQQDQIGQVTGLAWTQVGGELLTIEAAVVPGKGQLTKTGSLGDVMAESITAALTVVRSRAQSLGIAADFHEKRDIHIHVPEGATPKDGPSAGIGMCTALVSAITQIPVRADVAMTGEITLRGQVLAIGGLKEKLLAAHRGGIKTVIIPEENVRDLKEIPDNIKSDLVIKPVKWIDEVLQIALQYAPEPLPDAAPEMVAKDEKREPDSKERIST | not soluble
13 | MSKADENDANLTENGVHKSRSDSEINSHTSSIHKSSSQHRRLFIDDISTIEASAGDRVWATCSGAGDATELITIHFLGDQFEESAIDVVRKHSLVMFTVPSLKVDSELEVELRFSTSNDNVTTISFKYLPRKIQRSHTQEISLFDNLLEFATNGDTISLLQPFVAQISKQDIEGNTVFHVAAKNGQSFSLKLLLSVIPPDIKNEVINVQNTHGLTALHVAIRTGDPDAVHYLMNHGAKIDISDNHGSTALHYLGDAYNESIFKEILEPSRGQRFDVNQLNSEGFAPIHVAVRRLKLSLIEMLIEAGALIDFLDTEKKRNALMHAIEMNDFETIQLLVERGSGTNIEDESGETALSLAVKNVNYPVIGLLLDNGADPNRQNSKGICLADSEDSVIQNIINGDRPELPKKEAFGVPNDLAISRSPLFGRSHPDQAPGEESGRHRVVKRSREEILNDAQTLLAETDSMAPRVSRISTSESEDEQQPGPSTSSGTRRRRSEWDRNPKLSDSVCNLDYLTRIRVAKIFDDQCKWQRLAQQLNCDHMVELISICSSGDDSSPTMILLDQFEQLEDSSISRLRDAMNQMAEDDAVKLIDSRYVY | not soluble
14 | MCFRIADGTFFGWEGCFFQAGSCPGTCTHVWNYAQTVANLFPRLERNMRETEFLRETDGQGKMNFRAKIQLEGKPWDMYPAVDGQLGSILRVYREWKISGDDDFLKKIWNQVVSALEFSASYWDSNQDCVLDGQQHNTYDIEFYGVNSLGNSIYYAALKAGAEMAEYLGEHERSQKWRSMEQAGCKRMDEMLFNGEYYRQVTDGDIDEYKYQYGEGCLSDQLLGQTLAHLYGLGHLFPEDHVKSAVFAIYKYNFKERMGSHKSLQRGYAYQDEPGLLLCSWPSGGRPKQPFVYSDEVWTGIEYQVAAGLIYEGFLQEGLEIVRAVRSRYDGYKRNPFNEVECGNHYARSMASWGVLNALSGLQVDLPHNSVTISPKVNQDCFSSFYSTGTEWGICRQFKDQSGALIQSFEALYHADLEHHHHHH | not soluble
15 | MLMLEREKLARLIKKRSLKVADEPVFKLSSGKLSRYYVDLKQITFDPEGDYLIGKAMYELVKEFNPDACGGLTLGADPIAYAIAFVSLMDSNPIKPFVVRKEPKGHGMKRQIEGLLNPGERVAVLEDVVTTGSSALKAVKACREYGLEVIGVFAVVDREEGGRENIEKEGIPLYSLFKLSELL | soluble
16 | MLTDTAAEGLSDSEVGREEPATAEEEQREQQPEKFEEPVFSAELDEEQTAPESQTEAVSEDEKAKEPSDSPVYNHHENAAEGAESPFVQEEQMDIRQEEPLFTDHEYSSEALAQAETVAKESEEPSESIINNHYDTLGEAQETKIDVQPDSHTELEKTEHMEQGSKSSTATLENRQEIRADKPREASEEPKKRPGVQEKRTEQSASSQKGPSVPFNVMMLKRDTHKQQKAEERRGSYVFPNVALLDVPPAQVQDDTAWIEEQRQLLDLTLKNFNVRANVVHVTQGPSVTRFEVHPEPGVKVNKITNLSDDIKLSLSAKDIRIEAPIPGKNTIGIEVPNRTSKVVDLRQMIRSSAFRTSKSPLTAALGLDISGNPVVIDLKKMPHGLIAGATGSGKSVCINTILVSLLYKADPSEVKVLLIDPKMVELAPYNKIPHLVSPVITDAKAATAALKWVVEEMERRYELFAHSGVRDIDRFNQLTAEHQMGEKLPYLVVIIDELADLMMVAPNDVEESIARIAQKARACGIHLLVATQRPSVDVITGLIKANIPTRIAFSVSSQVDSRTIIDIAGAEKLLGKGDMLFLENGSGKPVRLQGNFVSDREIDRVVSHVRSQMPPTYLFEQEELVRQGSALKEEDELFYEACEFVVEQNSASTSSLQRRFRIGYNRAARLIDMMEAEGMISEAKGSKPREVLITASDLINE | not soluble
